Measured values as given in patent US20240425607A1 (published 2024).
Changes are numbered by the printed parent chain.

B1: ADI-66692 (antibody, V domains shown)
VH: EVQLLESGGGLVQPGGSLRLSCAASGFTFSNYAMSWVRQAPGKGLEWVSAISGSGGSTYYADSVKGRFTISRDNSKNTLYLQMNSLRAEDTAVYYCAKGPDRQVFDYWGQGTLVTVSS
VL: DIQMTQSPSSVSASVGDRVTITCRASQGIDSWLAWYQQKPGKAPKLLIYAASSLQSGVPSRFSGSGSGTDFTLTISSLQPEDFATYYCQHAYSFPYTFGGGTKVEIK
B2: ADI-66716 (antibody, V domains shown)
VH: QLQLQESGPGLVKPSETLSLTCTVSGGSISSSDYYWGWIRQPPGKGLEWIGSIYYSGSTYYNPSLKSRVTISVDTSKNQFSLKLSSVTAADTAVYYCARGPHRQVFDYWGQGTLVTVSS
VL: B1 VL with D30S, H90Q, A91G, Y92S

Experiments:
[1] = target: T1, human IL-18BP (recombinant, construct not stated) (UniProt O95998 31-194); assay: blocking ELISA
T1 chain: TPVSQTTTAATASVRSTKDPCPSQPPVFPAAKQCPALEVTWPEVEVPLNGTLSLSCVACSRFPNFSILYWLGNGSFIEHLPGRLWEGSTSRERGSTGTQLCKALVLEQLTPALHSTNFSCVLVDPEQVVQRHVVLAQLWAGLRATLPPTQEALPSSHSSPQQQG

[2] = target: Cyno IL18-IL18BP (cynomolgus monkey); assay: blocking ELISA

| Binder | IC50 [1] [µg/mL] | IC50 [2] [µg/mL] |
| --- | --- | --- |
| B1 | 0.278 | – |
| B2 | 0.208 | 8.18 |
